Measured values taken from PMC7862700, “An all-to-all approach to the identification of sequence-specific readers for epigenetic DNA modifications on cytosine”.

Assays:
ETS2 = biological target: T1, ETS2 (Homo sapiens, UniProt P15036 1-469); test: BLI (OCTET); EMSA: 25 mM HEPES pH 8.0, 100 mM NaCl, 50 mM KAc, 5 mM MgCl2, 5% glycerol, 1 mM DTT, 0.1 mg/mL BSA, ~22 C, 5 nM probe; OCTET: 50 mM HEPES pH 8.0, 100 mM NaCl, 50 mM KAc, 5 mM MgCl2, 40 mM glutathione, 5 mg/mL BSA, 0.05% Tween-20; conditions: protein: recombinant; tags: N-terminal GST; label: 5' biotin on strand 2 (Bio-T7 primer); blunt
T1 sequence: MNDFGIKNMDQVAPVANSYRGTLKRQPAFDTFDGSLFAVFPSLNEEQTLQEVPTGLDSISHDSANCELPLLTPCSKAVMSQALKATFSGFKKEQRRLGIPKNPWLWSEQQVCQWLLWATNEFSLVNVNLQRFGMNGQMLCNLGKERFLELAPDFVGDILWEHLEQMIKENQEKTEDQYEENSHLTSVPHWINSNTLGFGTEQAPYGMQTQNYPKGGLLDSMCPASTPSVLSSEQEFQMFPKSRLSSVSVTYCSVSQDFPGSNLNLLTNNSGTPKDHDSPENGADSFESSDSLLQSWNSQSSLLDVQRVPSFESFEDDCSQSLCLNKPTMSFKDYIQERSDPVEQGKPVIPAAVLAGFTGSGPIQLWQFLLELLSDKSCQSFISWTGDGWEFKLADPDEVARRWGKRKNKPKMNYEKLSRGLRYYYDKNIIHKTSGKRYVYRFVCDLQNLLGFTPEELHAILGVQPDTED

SPDEF = biological target: T2, SPDEF (Homo sapiens, UniProt O95238 1-335); test: as above; conditions: protein: recombinant; tags: N-terminal GST; label: 5' biotin on strand 2 (Bio-T7 primer); blunt
T2 sequence: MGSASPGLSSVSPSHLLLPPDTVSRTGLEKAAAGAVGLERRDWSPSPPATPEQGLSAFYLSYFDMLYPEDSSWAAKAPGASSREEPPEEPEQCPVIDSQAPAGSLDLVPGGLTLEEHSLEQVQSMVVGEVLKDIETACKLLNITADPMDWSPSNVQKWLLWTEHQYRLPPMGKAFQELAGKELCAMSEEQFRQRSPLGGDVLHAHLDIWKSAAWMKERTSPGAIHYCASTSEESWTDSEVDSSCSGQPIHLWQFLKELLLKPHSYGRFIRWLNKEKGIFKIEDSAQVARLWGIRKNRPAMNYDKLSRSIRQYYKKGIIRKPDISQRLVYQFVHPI

B1: ETS family probe (dsDNA)
DNA 1: ACTTCCGGTTATAGTGAGTGCTATTA
DNA 2: TAATAGCACTCACTATAACCGGAAGT
Kd (ETS2): 1.8 nM
Kd (SPDEF): 132 nM
